Data taken from PMC5584238.

Molecular target: ectodomain of CD147 (CD147^ECT, residues 22-205), wild type (human) (UniProt P35613)

MMP-2 production of fibroblasts co-cultured with K7721-WT cells (full-length WT CD147 on cells) treated with different concentrations of Cu2+ up to 30 uM, gelatin zymography: 2.2 fold
Substance: ectodomain of CD147 (CD147^ECT, residues 22-205), wild type (from UniProt P35613-2 22-205) (domain or fragment)
